Results from paper PMC2289750 (The Journal of Cell Biology, 1992).

Target: T1, zyxin (chicken, UniProt Q04584 1-542, 125I (radioiodinated using Iodogen))
T1 sequence (looked up): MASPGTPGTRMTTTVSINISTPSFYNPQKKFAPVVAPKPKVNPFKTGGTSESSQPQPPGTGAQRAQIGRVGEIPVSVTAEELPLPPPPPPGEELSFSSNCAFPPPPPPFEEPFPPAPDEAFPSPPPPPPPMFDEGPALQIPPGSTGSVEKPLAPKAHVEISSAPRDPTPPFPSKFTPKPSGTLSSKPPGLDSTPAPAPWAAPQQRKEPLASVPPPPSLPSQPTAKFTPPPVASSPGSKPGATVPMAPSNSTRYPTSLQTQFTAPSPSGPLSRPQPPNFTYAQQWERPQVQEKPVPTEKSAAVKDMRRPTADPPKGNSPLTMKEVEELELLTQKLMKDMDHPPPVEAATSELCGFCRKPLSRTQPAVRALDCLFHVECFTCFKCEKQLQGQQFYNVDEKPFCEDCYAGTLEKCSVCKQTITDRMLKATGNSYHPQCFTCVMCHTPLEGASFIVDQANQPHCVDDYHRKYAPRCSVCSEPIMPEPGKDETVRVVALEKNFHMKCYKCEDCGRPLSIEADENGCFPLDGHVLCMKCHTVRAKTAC
Experiment: far-Western, overlay or dot blot

B1: chicken Cysteine-Rich Protein (cCRP) (natural protein)
chain: MPNWGGGKKCGVCQKAVYFAEEVQCEGSSFHKSCFLCMVCKKNLDSTTVAVHGDEIYCKSCYGKKYGPKGYGYGMGAGTLSTDKGESLGIKYEEGQSHRPTNPNASRMAQKVGGSDGCPRCGQAVYAAEKVIGAGKSWHKSCFRCAKCGKSLESTTLADKDGEIYCKGCYAKNFGPKGFGFGQGAGALIHSQ
B1: binds.
